{
  "source": "patent US20030061635A1",
  "about": "“Pollen-specific novel calmodulin-binding protein, NPG1 (No Pollen Germination1), promoter, coding sequences and methods for using the same” (priority 2001, published 2003)",
  "key": {"[1]": {"test_system": "CaM isoforms 2, 4, and 6 from Arabidopsis", "experiment": "Slot blot: synthetic peptides probed with 35S-labeled AtCaM isoforms", "type": "binding, Arabidopsis thaliana", "description": "Soluble and insoluble proteins from the induced and un-induced cultures were separated on 12% SDS-polyacrylamide gels and blotted as described above. To detect the binding of the expressed proteins to ^35S-labeled AtCaM, duplicate blots were blocked for 15 min in TBS (50 mM Tris-HCl, pH 7.5, 150 mM NaCl) containing 5 mM of either CaCl2 or EGTA and 1% nonfat dry milk. The blots were then incubated for 12 h in a mixture of ^35S-labeled AtCaM isoforms at […] in the same buffers as above. The filters were then washed with the corresponding buffer and dried before exposing to X-ray film. Binding to biotinylated CaM was detected by blocking the blots in 3% gelatin in TBS/Ca/Mg or TBS/EGTA/Mg (50 mM Tris-HCl, pH 7.5, 50 mM MgCl2, 150 mM NaCl, and 5 mM of either CaCl2 or EGTA) at 30° C. […] The blots were then incubated in Vectastain ABC.HRP in TBS/Ca/Mg or TBS/EGTA/Mg for 30 min, washed 3 times, 10 min each, with the above buffer and the CaM-binding proteins were detected colorimetrically in a substrate solution (0.8 mg/ml diaminobenzidine, 0.4 mg/ml NiCl2, and 0.009% H2O2 in 100 mM Tris-HCl, pH 7.5). […]\nThe interaction between synthetic peptides and AtCaM isoforms was analyzed by applying synthetic peptides to a nitrocellulose membrane in a slot blot apparatus, and incubating the membrane individually with ^35S-labeled AtCaM isoforms using the method described above."}, "35S-labeled AtCaM": {"test_system": "35S-labeled AtCaM", "experiment": "Blot overlay of bacterially expressed maize NPG1 fusion proteins with 35S-CaM", "type": "binding, Arabidopsis thaliana", "settings": "in the presence of Ca2+", "description": "The 1.2-kb cDNA insert (named P3) containing the coding region for 242 amino acids in the carboxyl-terminal region was cloned in-frame into a pET28b expression vector. For mapping the CaM-binding domain, several truncated constructs were prepared in a pET vector. The P3 cDNA in pET28 was digested with either NcoI or BamHI to release a 168- or 717-bp fragment corresponding to the 5′ end of the cDNA. The NcoI and BamHI fragments were cloned into pET28b vector digested with the respective enzymes to generate P3/NcoI and P3/BamHI clones. The P3 clones lacking either NcoI or BamHI fragments were religated to generate PΔNcoI and PΔBamHI expression clones. […]\nSoluble and insoluble proteins from the induced and un-induced cultures were separated on 12% SDS-polyacrylamide gels and blotted as described above. […] Binding to biotinylated CaM was detected by blocking the blots in 3% gelatin in TBS/Ca/Mg or TBS/EGTA/Mg (50 mM Tris-HCl, pH 7.5, 50 mM MgCl2, 150 mM NaCl, and 5 mM of either CaCl2 or EGTA) at 30° C. […] The blots were then incubated in Vectastain ABC.HRP in TBS/Ca/Mg or TBS/EGTA/Mg for 30 min, washed 3 times, 10 min each, with the above buffer and the CaM-binding proteins were detected colorimetrically in a substrate solution (0.8 mg/ml diaminobenzidine, 0.4 mg/ml NiCl2, and 0.009% H2O2 in 100 mM Tris-HCl, pH 7.5)."}, "bovine CaM [2]": {"target": "T1, bovine CaM (Bos taurus, UniProt P62157)", "T1 construct": "purchased Calbiochem-Novabiochem (San Diego, Calif.)", "experiment": "Binding of synthetic peptide to bovine CaM", "settings": "'at concentrations as low as'"}, "CaM6": {"target": "T2, CaM6 (Arabidopsis thaliana, UniProt Q03509)", "T2 construct": "made in house; host or cells: E. coli BL21(DE3)", "experiment": "Tryptophan fluorescence spectroscopy of peptide with CaM", "type": "binding", "settings": "equimolar peptide and CaM6, excitation 290 nm; free peptide about 350 nm", "description": "(§1) The tryptophan fluorescence spectra of free and CaM-bound synthetic peptide were recorded with a Hitachi-F-3010/4010 spectrofluorimeter as described in Reddy et al. (1996) supra. NPG1 peptide and AtCaMs (166 pmol each) were mixed in a […] reaction volume. The tryptophan residue in free and CaM-bound synthetic NPG1 peptide was excited at 290 nm and the emission wavelength values were recorded from 300 to 400 nm with a bandwidth of 5 nm in a 5-mm quartz cell at 25° C. Samples were incubated for 1 h at 25° C. prior to spectroscopic measurements. Corrections were made for the protein and solvent blanks."}, "CaM4": {"target": "T3, CaM4 (Arabidopsis thaliana, UniProt P0DH96)", "T3 construct": "made in house; host or cells: E. coli BL21(DE3)", "experiment": "Tryptophan fluorescence spectroscopy of peptide with CaM", "type": "binding", "description": "as §1"}, "bovine CaM [3]": {"target": "T1, bovine CaM", "experiment": "Tryptophan fluorescence spectroscopy of peptide with CaM", "type": "binding", "settings": "equimolar peptide and bovine CaM, excitation 290 nm; free peptide about 350 nm", "description": "as §1"}, "CaM2": {"target": "T4, CaM2 (Arabidopsis thaliana, UniProt P0DH97)", "T4 construct": "made in house; host or cells: E. coli BL21(DE3)", "experiment": "Tryptophan fluorescence spectroscopy of peptide with CaM", "type": "binding", "settings": "equimolar peptide and CaM2, excitation 290 nm; free peptide about 350 nm", "description": "as §1"}, "bovine CaM [4]": {"target": "T1, bovine CaM", "experiment": "Calmodulin electrophoretic mobility shift assay in 4 M urea gels", "type": "binding", "description": "(§2) The interaction of CaM with synthetic peptide was also analyzed using electrophoretic mobility shift of CaM in the presence of a synthetic peptide. Each of the AtCaM isoforms and bovine CaM (166 pmol) were incubated with increasing concentrations of maize NPG1-synthetic peptide (166, 332, and 664 pmol) in the presence of 4 M urea, in a buffer containing 100 mM Tris-HCl, pH 7.5, and 1 mM CaCl2 or 5 mM EGTA at room temperature for 1 h in a total volume of […]. Then, […] of sample buffer (0.375 M Tris-HCl, pH 6.8, 30% glycerol, and 0.023% bromphenol blue) was added to the samples and the mixture was electrophoresed in 12% polyacrylamide gels containing 4 M urea or 7.5% glycerol, 0.375 M Tris-HCl, pH 8.8, and either 1 mM CaCl2 or 5 mM EGTA. The gels were run at a constant voltage of 25 V per gel in an electrode buffer (25 mM Tris-HCl, pH 8.3, 192 mM glycine, and either 1 mM CaCl2 or 5 mM EGTA). The gels were stained with 0.25% Coomassie Blue R-250 in 7.5% acetic acid and 50% methanol for 1 h and then destained with 30% methanol and 7% acetic acid."}, "[5]": {"test_system": "AtCaM isoforms (CaM2, CaM4, CaM6)", "experiment": "Calmodulin electrophoretic mobility shift assay in 4 M urea gels", "type": "binding, Arabidopsis thaliana", "description": "as §2"}, "CaM": {"test_system": "CaM", "experiment": "CaM binding of truncated Arabidopsis NPG1", "source_text": "To map the CaM-binding domain, a truncated version (aa 448-496 of SEQ ID NO:10) of Arabidopsis NPG1 which contains a putative calmodulin-binding domain was expressed in E. coli and tested for its ability to bind CaM. […] The CBD was further mapped to an eighteen amino acid stretch (aa 464-481) by using synthetic peptides in a gel-shift assay."}, "[6]": {"settings": "molar ratio 1:1 (peptide:CaM), CaCl2, 4 M urea"}, "[7]": {"settings": "molar ratio 2:1 and 4:1 (peptide:CaM), CaCl2, 4 M urea"}},
  "data": [
    {"substance": "AKLDQGSLLRVKA-KLKVAQSSPM (AKLDQGSLLRVKAKLKVAQSSPM) [MP-2]", "values": [
      {"measurement": "binding to the labeled CaM isoforms", "setting": "[1]; 35S-labeled AtCaM isoforms, slot blot", "result": "Neither MP2 nor BSA showed any binding"}
    ]},
    {"substance": "P3/NcoI: truncated P3 fusion protein (16 kDa) from the 168-bp NcoI fragment at the 5′ end of the cDNA (GGSVSKGWRLLALILSAQQRFSEAEVATDAALDETAKLDQGSLLRVKAKLKVAQSSP; left off: small tags and cut ends)", "values": [
      {"measurement": "binding to 35S-CaM", "setting": "35S-labeled AtCaM", "result": "produced CaM-binding peptide"}
    ]},
    {"substance": "VSKGWRLLALILSAQQRF [MP-1]", "values": [
      {"measurement": "lowest amount of synthetic peptide that bound CaM", "setting": "bovine CaM [2]", "result": 0.5, "unit": "µg"},
      {"measurement": "wavelength of peak emission", "setting": "CaM6", "result": "about 315 nm"},
      {"measurement": "wavelength of peak emission", "setting": "CaM4; equimolar peptide and CaM4, excitation 290 nm, free peptide about 350 nm", "result": "about 315 nm"},
      {"measurement": "fluorescence intensity", "setting": "CaM4; in the presence of CaM4, free peptide about 0.1", "result": "about 4.5"},
      {"measurement": "wavelength of peak emission", "setting": "bovine CaM [3]", "result": "about 315 nm"},
      {"measurement": "wavelength of peak emission", "setting": "CaM2", "result": "about 315 nm"},
      {"measurement": "change in CaM mobility", "setting": "bovine CaM [4]; in the presence of EGTA", "result": "No change in CaM mobility"},
      {"measurement": "CaM showing a mobility shift", "setting": "bovine CaM [4]; [6]", "result": "about 50%"},
      {"measurement": "CaM migrating as peptide complex", "setting": "bovine CaM [4]; [7]", "result": "the entire CaM migrated as a complex"},
      {"measurement": "lowest amount of synthetic peptide that bound CaM", "setting": "[1]; CaM isoforms 2, 4, and 6, 'at concentrations as low as'", "result": 0.5, "unit": "µg"},
      {"measurement": "change in CaM mobility", "setting": "[5]; in the presence of EGTA", "result": "No change in CaM mobility"},
      {"measurement": "CaM showing a mobility shift", "setting": "[5]; [6]", "result": "about 50%"},
      {"measurement": "CaM migrating as peptide complex", "setting": "[5]; [7]", "result": "the entire CaM migrated as a complex"}
    ]},
    {"substance": "truncated version (aa 448-496 of SEQ ID NO:10): truncated Arabidopsis NPG1 containing a putative calmodulin-binding domain, expressed in E. coli (AASRYAKEFIDATGGSVLKGWRFLALVLSAQQRFSEAEVVTDAALDETA; listed as Arabidopsis thaliana)", "values": [
      {"measurement": "ability to bind CaM", "setting": "CaM", "result": "bound CaM in a manner similar to the full-length protein"}
    ]}
  ]
}
